This note sets out measurements from the Human Domainome abundance scans (Beltran et al. 2025).

Sequences and labels used below:
B1: Peroxisome proliferator-activated receptor delta, residues 71 to 145; numbered along this chain, Q03181 (parent)
chain: NMECRVCGDKASGFHYGVHACEGCKGFFRRTIRMKLEYEKCERSCKIQKKNRNKCQYCRFQKCLALGMSHNAIRF

± gives the uncertainty stated by the source.

The data set covers variants of B1. Put plainly: abundance fitness (aPCA) (normalised: wild type 0, dead -1); higher = more abundant; growth selection in yeast, the domain comes from the species named. The following applies: Homo sapiens.
Consider NMECRVCGDKASGFHYGVHACEGCKGFFRRTIRMKLYYEKCERSCKIQKKNRNKCQYCRFQKCLALGMSHNAIRF [E37Y], for which the abundance fitness is -0.326 ± 0.12.

Consider NMECRVCGDKASGFHYGVHACRGCKGFFRRTIRMKLEYEKCERSCKIQKKNRNKCQYCRFQKCLALGMSHNAIRF [E22R], for which the abundance fitness is -0.293 ± 0.041.

Consider NMECRVCGDKASGFHYGVHACCGCKGFFRRTIRMKLEYEKCERSCKIQKKNRNKCQYCRFQKCLALGMSHNAIRF [E22C], for which the abundance fitness was -0.258 ± 0.076.

Take NMECRVCGDKASGFHYGVHACEGCKGFFRRTIRMKLEYEKCERSCKIQKKNRNKVQYCRFQKCLALGMSHNAIRF [C55V]: the abundance fitness is -1.03 ± 0.13.

NMECRVCGDKASGFHYGVHACEGCKGFFRRTIRMKLEYEKCERSCKIQKKNSNKCQYCRFQKCLALGMSHNAIRF [R52S]: the abundance fitness is -0.022 ± 0.04.

In the case of NMECRVCGDKASGFHYGVHATEGCKGFFRRTIRMKLEYEKCERSCKIQKKNRNKCQYCRFQKCLALGMSHNAIRF [C21T], the abundance fitness is -0.83 ± 0.1.

On to NMECRVCGDKASGFHYGVHACEGCKGFFRRTIRMSLEYEKCERSCKIQKKNRNKCQYCRFQKCLALGMSHNAIRF [K35S], for which the abundance fitness came out at 0.013 ± 0.039.

For the variant NMECRVCGDKASGFHYGVHACEGCKGFFRRTIRMKLEYEKCERSCKIQKKNRNKCQYCRFQFCLALGMSHNAIRF [K62F], the abundance fitness was -0.418 ± 0.13.

As for NMECRVCGDKASGFHYGVHACEGCKGFFRRTIRMKLEYEKCERSCKIQKKNRNKCQYCRFQPCLALGMSHNAIRF [K62P], the abundance fitness is -0.824 ± 0.12.

For NMECRVCGDKASGFHYGVHACEGCKGFFRRTIRMKLEYEKCERSCKIQKKNRNKCQYCRFQKCLALGMSHNAIRQ [F75Q], the abundance fitness was determined as 0.301 ± 0.093.

For NMECRVCGDKASGFHYGVHACEGCKGFFRRTIRMKLEYEKCERSCKIQKKNRNKCQYCRFQKCLALGMSHNAIRK [F75K], the abundance fitness was determined as 0.238 ± 0.11.

Turning to NMECRVCGDKASGFHYGVHACEGCKGFFRRTIRMKLEYEKCERSCKIQKKNRNKCQYCRFQKCLALGMSHNAIRI [F75I], the abundance fitness was -0.023 ± 0.09.

Regarding NMECRVCGDKASGFHYGVHACEGCKGFFRRTIRMKLEYEKCERSCKIQKKNRNKCTYCRFQKCLALGMSHNAIRF [Q56T], the abundance fitness is -0.321 ± 0.056.

Take NMECRVCGDKASGFHYGVHACEGCKGFFRRTIRMKLEYEKCERSCKIQKKNRNKCIYCRFQKCLALGMSHNAIRF [Q56I]: the abundance fitness is -0.599 ± 0.19.

With NMECRVCGDKASGFHYGVHACEGCKGFFRRTIRMKLEYEKCERSCKIQKKNRNKCRYCRFQKCLALGMSHNAIRF [Q56R], the abundance fitness is -0.227 ± 0.037.

For NMHCRVCGDKASGFHYGVHACEGCKGFFRRTIRMKLEYEKCERSCKIQKKNRNKCQYCRFQKCLALGMSHNAIRF [E3H], the abundance fitness was -0.027 ± 0.077.

Take NMRCRVCGDKASGFHYGVHACEGCKGFFRRTIRMKLEYEKCERSCKIQKKNRNKCQYCRFQKCLALGMSHNAIRF [E3R]: the abundance fitness was -0.327 ± 0.041.

Turning to NMYCRVCGDKASGFHYGVHACEGCKGFFRRTIRMKLEYEKCERSCKIQKKNRNKCQYCRFQKCLALGMSHNAIRF [E3Y], the abundance fitness was -0.182 ± 0.086.

Turning to NMECRDCGDKASGFHYGVHACEGCKGFFRRTIRMKLEYEKCERSCKIQKKNRNKCQYCRFQKCLALGMSHNAIRF [V6D], the abundance fitness is -0.823 ± 0.19.

With NMECRVCGDKASGFHYGVHACEGCKGFFRRTIRMKLEYEKCERSCKIQKKNRNKCQYCRFQKCLALGMSHNEIRF [A72E], the abundance fitness came out at 0.122 ± 0.042.

For NMECRVCGDKASGFHYGVHACEGCKGFFRRTIRMKLEYEKCERSCKIQKKNRNKCQYCRFQKCLALGMSHNAPRF [I73P], the abundance fitness was determined as 0.215 ± 0.044.

NMECRVCGDKASGFHYGVHACEGCKGFFRRTIRMKLEYEKCIRSCKIQKKNRNKCQYCRFQKCLALGMSHNAIRF [E42I]: the abundance fitness is -0.304 ± 0.089.

NMECRVCGDKASGFHYGVHACEGCKGFFRRTIRMKLEYEKCERSCKIQKKNRNKCQQCRFQKCLALGMSHNAIRF [Y57Q]: the abundance fitness is -0.862 ± 0.17.

In the case of NMECRVCGDKASGFHYGVHACEGCKGFFRRTIRMKLEHEKCERSCKIQKKNRNKCQYCRFQKCLALGMSHNAIRF [Y38H], the abundance fitness is -0.718 ± 0.22.

Regarding NMECRVCGDKASGFHYGVHACEGCKGFFRRTIRMKLESEKCERSCKIQKKNRNKCQYCRFQKCLALGMSHNAIRF [Y38S], the abundance fitness is -0.868 ± 0.1.

In the case of NMECRVCGDKASGFHYGVHACEGCKGFFRRTIRMKLEYEKCERSCKIQKKNRNKCQYCWFQKCLALGMSHNAIRF [R59W], the abundance fitness was determined as 0.204 ± 0.038.

Turning to NMECRVCGDKASGFHYGVHACEGCKGFFRRTIRMKLEYLKCERSCKIQKKNRNKCQYCRFQKCLALGMSHNAIRF [E39L], the abundance fitness was -0.229 ± 0.041.

Consider NMECRVCGDKASGFHYGVHACEGCKGFFRRTIRMKLEYEKCERSCKIQKKNRNKCQYCRFQKCWALGMSHNAIRF [L64W], for which the abundance fitness is -0.755 ± 0.1.

Regarding NMECRVCGDKASGFHYGVHACEGCKGFFRRTIRMKLEYEKCERSCKIQKKNRNKCQYCRLQKCLALGMSHNAIRF [F60L], the abundance fitness was -0.027 ± 0.039.

Regarding NMECRVCGDKASGFHYGVHFCEGCKGFFRRTIRMKLEYEKCERSCKIQKKNRNKCQYCRFQKCLALGMSHNAIRF [A20F], the abundance fitness came out at 0.145 ± 0.13.

Turning to NMECRVCGDKASGFHYGVHLCEGCKGFFRRTIRMKLEYEKCERSCKIQKKNRNKCQYCRFQKCLALGMSHNAIRF [A20L], the abundance fitness is -0.106 ± 0.051.

As to NMECRVCGDKASGFHYGVHKCEGCKGFFRRTIRMKLEYEKCERSCKIQKKNRNKCQYCRFQKCLALGMSHNAIRF [A20K], the abundance fitness is -0.771 ± 0.24.

For the variant NMECRVCGDKASGFHYGVHACEGCKGFFRRTIRMKLEYEKCERSDKIQKKNRNKCQYCRFQKCLALGMSHNAIRF [C45D], the abundance fitness is -1.01 ± 0.25.

NMECRVCGDKASGFHYGVHACEGCKGFFRRTIRMKLEYEKCERSVKIQKKNRNKCQYCRFQKCLALGMSHNAIRF [C45V]: the abundance fitness is -0.84 ± 0.08.

Take NMECRVCGDKASGFHYGVHACEGCKGFFRRTIRMKLEYEKCERSNKIQKKNRNKCQYCRFQKCLALGMSHNAIRF [C45N]: the abundance fitness is -0.835 ± 0.22.

As for NMECRVCGDKASGFHYGVHACEGCKGFFRRTIRMKLEYETCERSCKIQKKNRNKCQYCRFQKCLALGMSHNAIRF [K40T], the abundance fitness was -0.154 ± 0.048.

For NMECRVCGDKASGFHYGVHACEGTKGFFRRTIRMKLEYEKCERSCKIQKKNRNKCQYCRFQKCLALGMSHNAIRF [C24T], the abundance fitness was -0.723 ± 0.11.
